Seven sequences from the supplement of paper PMC5998384 can be followed below.

Data set [1] deals with HeLa Kyoto. As to the kind of experiment: thermal stability score vs G1/S (z-score of summed log2 fold changes over temperatures); higher = more thermally stable than in G1/S.
Data set [2] concerns HeLa Kyoto. Description: solubility in G1/S (NP-40 vs SDS abundance) (log2 ratio); higher = more soluble. Particulars: cell cycle stage: G1/S.
For data set [3], the system named is HeLa Kyoto. Description: melting temperature (median over replicates), in situ; higher = more thermally stable.
Data set [4] relates to HeLa Kyoto. Description: solubility change mitosis vs G1/S (difference of NP-40 vs SDS log2 ratios) (log2 ratio difference); higher = more soluble in mitosis.
The mark [5] stands for this setting: cell cycle stage: early G1 (4.5 h after nocodazole release).
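Throughout, for melting temperature (median over replicates), in situ: HeLa Kyoto cells synchronized by double thymidine or nocodazole block, proteins quantified by TMT10plex mass spectrometry, three independent biological replicates.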
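Throughout, for solubility change mitosis vs G1/S (difference of NP-40 vs SDS log2 ratios): synchronized HeLa Kyoto cells (double thymidine block for G1/S, nocodazole release for mitosis), protein amounts in NP-40 versus SDS lysates quantified by mass spectrometry, three biological replicates.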
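Throughout, for solubility in G1/S (NP-40 vs SDS abundance): HeLa Kyoto cells arrested at G1/S by double thymidine block, proteins quantified by TMT10plex mass spectrometry in mild NP-40 versus SDS extracts, three biological replicates.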
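Throughout, for thermal stability score vs G1/S (z-score of summed log2 fold changes over temperatures): synchronized HeLa Kyoto cells, proteins quantified by TMT10plex mass spectrometry, three biological replicates, mitosis taken 0.5 h after nocodazole release, G1/S directly after double thymidine block.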

Regarding “MASKRALVILAKGAEEMETVIPVDVMRRAGIKVTVAGLAGKDPVQCSRDVVICPDASLEDAKKEGPYDVVVLPGGNLGAQNLSESAAVKEILKEQENRKGLIAAICAGPTALLAHEIGFGSKVTTHPLAKDKMMNGGHYTYSENRVEKDGLILTSRGPGTSFEFALAIVEALNGKEVAAQVKAPLVLKD [PARK7]”, the thermal stability score is 1.01 in the data set on HeLa Kyoto [1] (setting [5]) and -0.859 in the data set with HeLa Kyoto [1] (cell cycle stage: mitosis). Moreover, the “solubility in G1/S (log2)” value in the data set on HeLa Kyoto [2] worked out at 0.529. Besides, the melting temperature in the data set on HeLa Kyoto [3] (cell cycle stage: G1/S) amounted to 56.8 °C; with HeLa Kyoto [3] (cell cycle stage: mitosis) it was 57.4 °C. Also, the “solubility change mitosis (log2)” value in the data set on HeLa Kyoto [4] was determined as 0.0696.
As to “MASLDRVKVLVLGDSGVGKSSLVHLLCQNQVLGNPSWTVGCSVDVRVHDYKEGTPEEKTYYIELWDVGGSVGSASSVKSTRAVFYNSVNGIIFVHDLTNKKSSQNLRRWSLEALNRDLVPTGVLVTNGDYDQEQFADNQIPLLVIGTKLDQIHETKRHEVLTRTAFLAEDFNPEEINLDCTNPRYLAAGSSNAVKLSRFFDKVIEKRYFLREGNQIPGFPDRKRFGAGTLKSLHYD [RABL3]”, the thermal stability score with HeLa Kyoto [1] (setting [5]) is -0.0942; in the data set on HeLa Kyoto [1] (cell cycle stage: mitosis), -1.09. In addition, the “solubility in G1/S (log2)” value in the data set with HeLa Kyoto [2] amounted to 0.0735. The figures for the melting temperature in the data set with HeLa Kyoto [3] (cell cycle stage: G1/S) and in the data set with HeLa Kyoto [3] (cell cycle stage: mitosis) were 52 °C and 51.9 °C, respectively. For the same sequence, the “solubility change mitosis (log2)” value in the data set on HeLa Kyoto [4] is -0.0274.
Turning to “MASLSLAPVNIFKAGADEERAETARLTSFIGAIAIGDLVKSTLGPKGMDKILLSSGRDASLMVTNDGATILKNIGVDNPAAKVLVDMSRVQDDEVGDGTTSVTVLAAELLREAESLIAKKIHPQTIIAGWREATKAAREALLSSAVDHGSDEVKFRQDLMNIAGTTLSSKLLTHHKDHFTKLAVEAVLRLKGSGNLEAIHIIKKLGGSLADSYLDEGFLLDKKIGVNQPKRIENAKILIANTGMDTDKIKIFGSRVRVDSTAKVAEIEHAEKEKMKEKVERILKHGINCFINRQLIYNYPEQLFGAAGVMAIEHADFAGVERLALVTGGEIASTFDHPELVKLGSCKLIEEVMIGEDKLIHFSGVALGEACTIVLRGATQQILDEAERSLHDALCVLAQTVKDSRTVYGGGCSEMLMAHAVTQLANRTPGKEAVAMESYAKALRMLPTIIADNAGYDSADLVAQLRAAHSEGNTTAGLDMREGTIGDMAILGITESFQVKRQVLLSAAEAAEVILRVDNIIKAAPRKRVPDHHPC [CCT2]”, the results for the thermal stability score in the data set on HeLa Kyoto [1] (setting [5]) and with HeLa Kyoto [1] (cell cycle stage: mitosis) were -0.324 and -1.07, respectively. Moreover, the “solubility in G1/S (log2)” value with HeLa Kyoto [2] amounted to 0.193. In addition, the results for the melting temperature in the data set with HeLa Kyoto [3] (cell cycle stage: G1/S) and in the data set on HeLa Kyoto [3] (cell cycle stage: mitosis) were 54.1 °C and 53.1 °C, respectively. In the data set with HeLa Kyoto [4], the “solubility change mitosis (log2)” value is -0.0739.
For the sequence “MASPGCLWLLAVALLPWTCASRALQHLDPPAPLPLVIWHGMGDSCCNPLSMGAIKKMVEKKIPGIYVLSLEIGKTLMEDVENSFFLNVNSQVTTVCQALAKDPKLQQGYNAMGFSQGGQFLRAVAQRCPSPPMINLISVGGQHQGVFGLPRCPGESSHICDFIRKTLNAGAYSKVVQERLVQAEYWHDPIKEDVYRNHSIFLADINQERGINESYKKNLMALKKFVMVKFLNDSIVDPVDSEWFGFYRSGQAKETIPLQETSLYTQDRLGLKEMDNAGQLVFLATEGDHLQLSEEWFYAHIIPFLG [PPT1]”, the results for the thermal stability score with HeLa Kyoto [1] (setting [5]) and with HeLa Kyoto [1] (cell cycle stage: mitosis) were 0.0933 and -1.67, respectively. In the data set with HeLa Kyoto [2], the “solubility in G1/S (log2)” value was found to be 0.426. The melting temperature in the data set with HeLa Kyoto [3] (cell cycle stage: G1/S) was 55.1 °C; in the data set on HeLa Kyoto [3] (cell cycle stage: mitosis) it was 55.2 °C. For the same sequence, the “solubility change mitosis (log2)” value in the data set with HeLa Kyoto [4] is -0.105.
As to “MASPGIEVELLGKGHSDLGEVAPEIKASERRTAVAIADLEWREMEGDDCEFRYGDGTNEAQDNDFPTVERSRLQEMLSLLGLETYQVQKLSLQDSLQISFDSMKNWAPQVPKDLPWNFLRKLQALNADARNTTMVLDVLPDARPVEKESQMEEEIIYWDPADDLAADIYSFSELPTPDTPVNPLDLLCALLLSSDSFLQQEIALKMALCQFALPLVLPDSENHYHTFLLWAMRGIVRTWWSQPPRGMGSFREDSVVLSRAPAFAFVRMDVSSNSKSQLLNAVLSPGHRQWDCFWHRDLNLGTNAREISDGLVEISWFFPSGREDLDIFPEPVAFLNLRGDIGSHWLQFKLLTEISSAVFILTDNISKKEYKLLYSMKESTTKYYFILSPYRGKRNTNLRFLNKLIPVLKIDHSHVLVKVSSTDSDSFVKRIRAIVGNVLRAPCRRVSVEDMAHAARKLGLKVDEDCEECQKAKDRMERITRKIKDSDAYRRDELRLQGDPWRKAAQVEKEFCQLQWAVDPPEKHRAELRRRLLELRMQQNGHDPSSGVQEFISGISSPSLSEKQYFLRWMEWGLARVAQPRLRQPPETLLTLRPKHGGTTDVGEPLWPEPLGVEHFLREMGQFYEAESCLVEAGRLPAGQRRFAHFPGLASELLLTGLPLELIDGSTLSMPVRWVTGLLKELHVRLERRSRLVVLSTVGVPGTGKSTLLNTMFGLRFATGKSCGPRGAFMQLITVAEGFSQDLGCDHILVIDSGGLIGGALTSAGDRFELEASLATLLMGLSNVTVISLAETKDIPAAILHAFLRLEKTGHMPNYQFVYQNLHDVSVPGPRPRDKRQLLDPPGDLSRAAAQMEKQGDGFRALAGLAFCDPEKQHIWHIPGLWHGAPPMAAVSLAYSEAIFELKRCLLENIRNGLSNQNKNIQQLIELVRRL [URGCP]”, the thermal stability score amounted to 0.429 in the data set with HeLa Kyoto [1] (setting [5]) and 0.88 in the data set on HeLa Kyoto [1] (cell cycle stage: mitosis). For the same sequence, the “solubility in G1/S (log2)” value with HeLa Kyoto [2] is -0.246. For the same sequence, the melting temperature came to 49.3 °C in the data set on HeLa Kyoto [3] (cell cycle stage: G1/S) and 49.8 °C in the data set on HeLa Kyoto [3] (cell cycle stage: mitosis). For the same sequence, in the data set on HeLa Kyoto [4], the “solubility change mitosis (log2)” value was -0.0805.
Turning to “MASPSRRLQTKPVITCFKSVLLIYTFIFWITGVILLAVGIWGKVSLENYFSLLNEKATNVPFVLIATGTVIILLGTFGCFATCRASAWMLKLYAMFLTLVFLVELVAAIVGFVFRHEIKNSFKNNYEKALKQYNSTGDYRSHAVDKIQNTLHCCGVTDYRDWTDTNYYSEKGFPKSCCKLEDCTPQRDADKVNNEGCFIKVMTIIESEMGVVAGISFGVACFQLIGIFLAYCLSRAITNNQYEIV [TSPAN6]”, the figures for the thermal stability score with HeLa Kyoto [1] (setting [5]) and in the data set with HeLa Kyoto [1] (cell cycle stage: mitosis) were 0.413 and -2.28, respectively. Also, the “solubility in G1/S (log2)” value in the data set with HeLa Kyoto [2] is -0.201. The melting temperature in the data set on HeLa Kyoto [3] (cell cycle stage: G1/S) was 58.9 °C; with HeLa Kyoto [3] (cell cycle stage: mitosis) it was 55.8 °C. Moreover, the “solubility change mitosis (log2)” value in the data set on HeLa Kyoto [4] was found to be 2.55e-05.
With “MASPVAAQAGKLLRALALRPRFLAAGSQAVQLTSRRWLNLQEYQSKKLMSDNGVRVQRFFVADTANEALEAAKRLNAKEIVLKAQILAGGRGKGVFNSGLKGGVHLTKDPNVVGQLAKQMIGYNLATKQTPKEGVKVNKVMVAEALDISRETYLAILMDRSCNGPVLVGSPQGGVDIEEVAASNPELIFKEQIDIFEGIKDSQAQRMAENLGFVGPLKSQAADQITKLYNLFLKIDATQVEVNPFGETPEGQVVCFDAKINFDDNAEFRQKDIFAMDDKSENEPIENEAAKYDLKYIGLDGNIACFVNGAGLAMATCDIIFLNGGKPANFLDLGGGVKEAQVYQAFKLLTADPKVEAILVNIFGGIVNCAIIANGITKACRELELKVPLVVRLEGTNVQEAQKILNNSGLPITSAIDLEDAAKKAVASVAKK [SUCLG2]”, the thermal stability score with HeLa Kyoto [1] (setting [5]) stood at 0.0772; in the data set with HeLa Kyoto [1] (cell cycle stage: mitosis) it was 0.0477. Besides, the “solubility in G1/S (log2)” value with HeLa Kyoto [2] worked out at 0.383. Further, the melting temperature in the data set with HeLa Kyoto [3] (cell cycle stage: G1/S) amounted to 51.3 °C; in the data set on HeLa Kyoto [3] (cell cycle stage: mitosis) it was 51.2 °C. For the same sequence, in the data set on HeLa Kyoto [4], the “solubility change mitosis (log2)” value was -0.104.
